Residue numbers refer to the chain shown, from its start.

We go through 4 molecules from patent publication US20230203202A1 (DRAGONFLY THERAPEUTICS, published 2023).

Assay [1] concerns the target T1, human 5T4 on the cell surface (human, UniProt Q13641 32-420).
T1 construct: whole, on cells; also called h5T4; TPBG
T1 sequence (looked up): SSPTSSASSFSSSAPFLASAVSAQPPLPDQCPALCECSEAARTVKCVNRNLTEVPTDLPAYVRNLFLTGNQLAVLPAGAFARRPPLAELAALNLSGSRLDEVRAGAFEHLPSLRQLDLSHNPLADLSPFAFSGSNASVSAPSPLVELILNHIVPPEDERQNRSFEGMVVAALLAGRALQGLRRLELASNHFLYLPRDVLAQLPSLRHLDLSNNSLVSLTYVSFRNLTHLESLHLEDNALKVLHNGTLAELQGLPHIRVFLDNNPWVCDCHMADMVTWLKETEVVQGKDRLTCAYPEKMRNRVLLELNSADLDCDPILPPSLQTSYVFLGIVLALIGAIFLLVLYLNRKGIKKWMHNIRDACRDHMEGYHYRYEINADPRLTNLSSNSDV
Kind of assay: flow cytometry on H1975 cells, FOB. (In general: A flow cytometer gives signals particle by particle.)

Assay [2] addresses T1, human 5T4 on the cell surface. Kind of assay: flow cytometry on 5T4+ H1975 cells.
Assay [3] has the same target. Kind of assay: cell-based or functional assay.

B1: AB1018 (antibody, V domains shown)
VH: EVQLVESGGGLVKPGGSLRLSCEASGFTFSDYGMHWVRQAPGKGLEWLAYISSGSSTFYYADTVKGRFTISRDNAKNSLYLQMNSLRAEDTAVYYCGSSQSYYRGTMDYWGQGTTVTVSS
VL: DIQLTQSPSSLSASVGDRVTITCRASQGVSTSTYTYLHWFQQKPGKAPKLLIKFASNLESGVPSRFSGSGSGTDFTLTISSLQPEDFATYYCQHSWEIPWTFGGGTKVEIK
notes: member of the group m33
Turning to B1, the binding result in assay [1] is listed as “binds”.

B2: AB1019 (antibody, V domains shown)
VH: B1 VH
VL: B1 VL with L37V
notes: member of the group m33
As for B2, in assay [1], the binding result was “binds”.

B3: 10F10 multispecific binding protein (F0) (bispecific antibody, V domains shown)
VH: EVQLQESGGGLVKPGGSRRLSCAASRFTFSDFGMHWVRQAPEKGLEWIAYISSGSSTIYYADTVKGRFTISRDNAKNTLFLQMTSLRSEDTAMYYCASSQSYYRGTLDYWGQGTSVTVSS
VL: DIVLTQSPASLAVTLGQRATISCRASQSVTTSNYNYMHWFHQKPGQPPKLLIKFASNLESGVPARFSGSGSGTDFTLNIHPVEEEDIATYYCQHSWEIPWTFGGGTKLEIK
Usually EC50 stands for the concentration that produces a half-maximal response. Higher therefore signals lower potency in that assay. Regarding B3, in assay [2], the EC50 amounted to 3.4 nM and the “Max (FOB)” value was determined as 17.9 fold over background. Also, the “lysis of H1975 cells by KHYG-CD16V cells, EC50” value in assay [3] is 0.059 nM.

B4: 8E06 multispecific binding protein (F0) (bispecific antibody, V domains shown)
VH: EVQLQESGAEMVRPGASVKLSCKASGYTFTSYWMHWVKQRPGQGLEWIGKIDSSDSKTQYNQKFKDKATLTVDKSSITVYMELNSLTSEDSAVYYCARGGYLWFAYWGQGTLVTVSA
VL: B3 VL with L4M, T14S, T30S, N33T, N35S, F40Y, H41Q, P47S, K53T, F54Y
notes: also called 08E06
B4 displayed an EC50 in assay [2] greater than 12 nM. Besides, the “lysis of H1975 cells by KHYG-CD16V cells, EC50” value in assay [3] turned out to be 0.51 nM.
